Results on three substances are retold here after patent US20200024330A1.

Bounds are passed on as bounds.

As usually defined, the IC50 is the concentration that gives 50% inhibition. Higher therefore signals lower potency.

Experiment in all cases: cell-based or functional assay
The target in experiment [1] is HIV-1 MGRM-F1-017 Env (pseudovirus) (HIV-1).
Experiment [2] addresses HIV-1 Env of isolate MGRM-G-027 (clade G pseudovirus) (HIV-1).
The target of experiment [3] is HIV-1 94KE105 envelope glycoprotein (Env) (HIV-1).
Experiment [4] concerns the target HIV-1 CMU02 envelope protein (Env) on pseudovirus (HIV-1).
The target of experiment [5] is HIV-1 LAVI_C3 Env (HIV-1).
Experiment [6] has as its target HIV-1 Env of isolate 92TH021 (HIV-1).
Experiment [7] addresses HIV-1 93IN905 Env (HIV-1).
In experiment [8] the target is HIV-1 Env of pseudovirus JRCSF, clade B (HIV-1) (UniProt P20871).
The target in experiment [9] is HIV-1 Env of pseudovirus MGRM-Chronic-B-004, clade B (HIV-1).
Experiment [10] addresses HIV-1 MGRM-C-015 Env (HIV-1).
Experiment [11] deals with HIV-1 Env of isolate 92UG024 (clade D) (HIV-1).
Experiment [12] concerns the target HIV-1 92TH021 envelope protein (Env) on pseudovirus (HIV-1).
Experiment [13] has as its target HIV-1 Env of isolate 92UG005 (clade D) (HIV-1).
Experiment [14] addresses HIV-1 Env of isolate MGRM-G-014 (clade G pseudovirus) (HIV-1).
Experiment [15] addresses HIV-1 MGRM-A-004 envelope glycoprotein (Env) (HIV-1).
In experiment [16] the target is aMLV envelope protein on pseudovirus.

1443_C16 (PG16) (TCN-116) (antibody), sequence (VH): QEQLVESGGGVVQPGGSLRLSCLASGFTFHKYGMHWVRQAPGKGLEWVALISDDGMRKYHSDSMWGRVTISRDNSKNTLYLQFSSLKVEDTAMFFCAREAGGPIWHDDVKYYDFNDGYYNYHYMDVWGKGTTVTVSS
1443_C16 (PG16) (TCN-116) (antibody), sequence (VL): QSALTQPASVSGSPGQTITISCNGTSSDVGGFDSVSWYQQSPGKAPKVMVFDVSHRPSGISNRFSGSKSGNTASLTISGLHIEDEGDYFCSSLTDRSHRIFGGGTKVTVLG

Consider 4E10 (antibody), for which the IC50 (µg/ml), pseudovirus neutralization in [1] was 4.92 µg/mL; in experiment [2] it was 1.19 µg/mL; in [3] it was 7.63 µg/mL; in experiment [6], 1.17 µg/mL; in experiment [8] it was 3.3 µg/mL; in [9], 3.7 µg/mL. Also, the IC50 (µg/ml), pseudovirus neutralization turned out to be 2.17 µg/mL in [11], 7.46 µg/mL in experiment [13], 13.7 µg/mL in [14] and 3.14 µg/mL in [15]. Also, the neutralization IC50 in [4] is 0.59 µg/mL; in experiment [12], 1.9 µg/mL; in [16], > 50 µg/mL. Also, the IC50 in experiment [5] came to 2.85 µg/mL; in [7], 1.26 µg/mL; in [10], 2.52 µg/mL.

For the substance 1443_C16 (PG16) (TCN-116) (antibody), the IC50 (µg/ml), pseudovirus neutralization is > 50 µg/mL in experiment [1]; 0.01 µg/mL in [2]; 6.13 µg/mL in experiment [3]; 0.1 µg/mL in experiment [6]; 0.001 µg/mL in [8]; 0.01 µg/mL in [9]. The IC50 (µg/ml), pseudovirus neutralization in [11] was 24 µg/mL; in [13], > 50 µg/mL; in [14], 6.98 µg/mL; in experiment [15], 0.04 µg/mL. Further, the neutralization IC50 in experiment [4] was > 50 µg/mL; in experiment [12] it was 0.127 µg/mL; in experiment [16], > 50 µg/mL. The IC50 came out at 9.55 µg/mL in experiment [5], 0.25 µg/mL in experiment [7] and 0.26 µg/mL in experiment [10].

On to 1495_C14 (PGC14) (antibody), for which the IC50 (µg/ml), pseudovirus neutralization in experiment [1] is > 50 µg/mL; in [2], > 50 µg/mL; in [3] it was > 50 µg/mL; in experiment [6] it was > 50 µg/mL; in [8], 15 µg/mL; in experiment [9] it was > 50 µg/mL. Besides, the IC50 (µg/ml), pseudovirus neutralization in [11], in [13], in experiment [14] and in experiment [15] was > 50 µg/mL each time. The neutralization IC50 in experiment [4], in [12] and in [16] was > 50 µg/mL throughout. For the same substance, the values for the IC50 in experiment [5], in experiment [7] and in [10] were 12 µg/mL, 19 µg/mL and > 50 µg/mL, respectively.
